Experimental data: publication PMC10167327

Tests used:
[1] = biological target: Vtc4* (Vtc4(1–487), SPX and TTM domains of Vtc4 without the transmembrane domain) (S. cerevisiae) (UniProt P47075); test: MST; settings: domain or fragment
[2] = biological target: Vtc4* (Vtc4(1–487), SPX and TTM domains of Vtc4 without the transmembrane domain) (S. cerevisiae) (UniProt P47075); test: MST; as a1, MST buffer supplemented with 2.5 mM IP6
[3] = biological target: Vtc4* (Vtc4(1–487), SPX and TTM domains of Vtc4 without the transmembrane domain) (S. cerevisiae) (UniProt P47075); test: MST; as a1, MST buffer supplemented with 2.5 mM 1,5-IP8
[4] = biological target: Vtc4* (Vtc4(1–487), SPX and TTM domains of Vtc4 without the transmembrane domain) (S. cerevisiae) (UniProt P47075); test: MST; as a1, MST buffer supplemented with 2.5 mM natural 5-IP7

Sequence of Vtc4* (Vtc4(1–487), SPX and TTM domains of Vtc4 without the transmembrane domain) (S. cerevisiae) (P47075 1-487): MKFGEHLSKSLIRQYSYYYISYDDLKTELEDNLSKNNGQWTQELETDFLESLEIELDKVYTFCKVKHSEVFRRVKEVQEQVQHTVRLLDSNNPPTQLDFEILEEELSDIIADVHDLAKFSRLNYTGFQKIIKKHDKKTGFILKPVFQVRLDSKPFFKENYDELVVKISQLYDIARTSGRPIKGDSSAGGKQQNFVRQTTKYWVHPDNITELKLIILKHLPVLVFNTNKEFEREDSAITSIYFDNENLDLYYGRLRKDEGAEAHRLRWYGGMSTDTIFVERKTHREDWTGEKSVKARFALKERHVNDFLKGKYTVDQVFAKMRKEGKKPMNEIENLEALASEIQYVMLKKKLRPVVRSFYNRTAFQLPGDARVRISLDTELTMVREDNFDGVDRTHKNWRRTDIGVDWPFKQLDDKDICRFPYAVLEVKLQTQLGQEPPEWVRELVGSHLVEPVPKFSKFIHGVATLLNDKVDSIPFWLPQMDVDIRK
Sequence of SPX2∆α1 (SPX2 with helix α1 truncated) (P43585 1-151): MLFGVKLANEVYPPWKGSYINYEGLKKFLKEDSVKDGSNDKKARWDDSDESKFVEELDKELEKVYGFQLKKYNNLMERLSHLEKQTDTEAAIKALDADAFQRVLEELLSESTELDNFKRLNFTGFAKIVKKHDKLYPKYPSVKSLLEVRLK

Substance	Kd [1] [mM]	fold decrease of affinity with 2.5 mM IP6 against no ligand [2] [fold]	fold decrease of affinity with 2.5 mM 1,5-IP8 against no ligand [3] [fold]	fold decrease of affinity with 2.5 mM 5-IP7 against no ligand [4] [fold]
SPX2∆α1 (SPX2 with helix α1 truncated)	1	–	–	–
SPX2 (SPX domain of Vtc2, Vtc2(1–201)) (from UniProt P43585 1-201) (domain or fragment)	–	> 20	> 100000	85
